{"source": "patent US20220064275A1", "about": "(SCHOLAR ROCK, published 2022)", "key": {"[1]": {"target": "hGARP-proTGFβ1 complex on cells (human, UniProt Q14392 20-662; P01137 30-390)", "assay": "cell-based or functional assay"}, "[2]": {"target": "hLTBP3-proTGFβ1 complex made by transfected cells (cell-based potency assay) (human, UniProt Q9NS15 44-1303; P01137 30-390)", "assay": "cell-based or functional assay"}, "[3]": {"target": "hLRRC33-proTGFβ1 complex on cells (human, UniProt Q86YC3 19-692; P01137 30-390)", "assay": "cell-based or functional assay"}, "[4]": {"target": "hLTBP1-proTGFβ1 complex made by transfected cells (cell-based potency assay) (human, UniProt Q14766 347-1721; P01137 30-390)", "sequence (Q14766 347-1721, chain 1 of 2)": "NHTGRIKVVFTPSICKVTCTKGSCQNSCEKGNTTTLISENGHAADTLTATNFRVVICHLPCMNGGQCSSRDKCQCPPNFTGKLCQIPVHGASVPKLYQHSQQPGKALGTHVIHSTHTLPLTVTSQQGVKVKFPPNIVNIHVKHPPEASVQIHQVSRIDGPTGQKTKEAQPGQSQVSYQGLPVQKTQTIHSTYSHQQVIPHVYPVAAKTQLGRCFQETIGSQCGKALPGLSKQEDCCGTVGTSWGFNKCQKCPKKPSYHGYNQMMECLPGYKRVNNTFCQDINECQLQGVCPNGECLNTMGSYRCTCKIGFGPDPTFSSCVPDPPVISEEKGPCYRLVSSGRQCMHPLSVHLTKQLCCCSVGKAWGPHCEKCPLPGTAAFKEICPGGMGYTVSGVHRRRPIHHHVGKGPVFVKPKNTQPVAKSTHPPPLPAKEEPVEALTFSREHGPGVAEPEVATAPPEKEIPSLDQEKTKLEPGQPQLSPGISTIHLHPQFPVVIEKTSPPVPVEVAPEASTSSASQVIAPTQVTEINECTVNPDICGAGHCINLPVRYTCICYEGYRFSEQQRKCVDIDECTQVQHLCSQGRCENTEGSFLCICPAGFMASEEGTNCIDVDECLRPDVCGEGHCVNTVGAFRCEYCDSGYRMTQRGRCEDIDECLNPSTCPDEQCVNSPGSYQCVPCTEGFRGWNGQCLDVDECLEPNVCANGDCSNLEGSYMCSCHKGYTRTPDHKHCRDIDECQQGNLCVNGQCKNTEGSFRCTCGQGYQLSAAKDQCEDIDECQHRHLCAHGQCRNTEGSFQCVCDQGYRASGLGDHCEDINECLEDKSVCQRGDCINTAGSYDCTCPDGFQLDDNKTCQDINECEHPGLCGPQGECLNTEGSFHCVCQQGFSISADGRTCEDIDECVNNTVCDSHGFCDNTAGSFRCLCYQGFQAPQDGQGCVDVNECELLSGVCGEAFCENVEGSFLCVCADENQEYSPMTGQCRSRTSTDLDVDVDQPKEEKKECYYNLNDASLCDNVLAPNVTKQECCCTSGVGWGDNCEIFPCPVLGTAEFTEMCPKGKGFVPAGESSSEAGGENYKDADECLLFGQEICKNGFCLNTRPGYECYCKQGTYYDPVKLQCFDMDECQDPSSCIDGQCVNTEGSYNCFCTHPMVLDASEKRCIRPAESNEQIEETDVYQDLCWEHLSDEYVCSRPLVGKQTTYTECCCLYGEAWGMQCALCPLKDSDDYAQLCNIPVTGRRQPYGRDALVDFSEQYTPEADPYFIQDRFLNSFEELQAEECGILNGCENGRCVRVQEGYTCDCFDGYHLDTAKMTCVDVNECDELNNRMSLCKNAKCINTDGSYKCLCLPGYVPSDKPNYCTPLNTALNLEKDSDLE", "sequence (P01137 30-390, chain 2 of 2)": "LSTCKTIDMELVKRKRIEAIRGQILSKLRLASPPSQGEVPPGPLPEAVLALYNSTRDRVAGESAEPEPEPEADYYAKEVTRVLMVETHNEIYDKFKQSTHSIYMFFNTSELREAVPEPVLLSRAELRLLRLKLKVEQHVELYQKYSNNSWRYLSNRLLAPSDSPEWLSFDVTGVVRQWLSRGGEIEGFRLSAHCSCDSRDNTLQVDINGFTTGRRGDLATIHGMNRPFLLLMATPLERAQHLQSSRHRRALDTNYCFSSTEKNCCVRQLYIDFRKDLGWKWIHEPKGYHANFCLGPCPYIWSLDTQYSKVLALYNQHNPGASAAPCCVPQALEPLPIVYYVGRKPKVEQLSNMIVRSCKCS", "assay": "cell-based or functional assay"}, "[5]": {"target": "rat LRRC33-proTGFβ1 complex (rat, UniProt Q5BK65 25-650; P17246 30-390)", "assay": "MSD-SET, solution equilibrium titration", "description": "(§1) MSD-SET assays were performed to measure affinities of the antibodies at equilibrium. Briefly, each test antibody was diluted 3-5 fold and samples were mixed with biotinylated antigen in a 48-well dish. The SET samples were equilibrated for 20-24 hours at room temperature. Meanwhile, a capture plate was coated with IgG (20 nM) and incubated overnight at 4° C. or 30 minutes at room temperature, followed by a blocking step with 5% BSA. After the capture plate was washed three times, SET samples were added and incubated for 150 seconds. The plate was washed once to remove unbound complexes. 250 ng/ml SA-Sulfotag was added then washed 3 times. 2× Read Buffer was added, and signals from the labeled bound complexes were read with the use of QuickPlex™ SQ 120 instrument.\n(§2) As an example, MSD standard plates (MSD) were coated with a 20 nM solution of monoclonal antibody in PBS for 30 min at room temperature or overnight at 4° C. […] After 20-24 hours of equilibration, the antibody-coated plate was blocked with Blocking Buffer A (MSD) for 30 minutes at room temperature and washed with wash buffer (PBS, 0.1% BSA, 0.05% Tween-20) before adding the equilibrated antibody-antigen complexes to the plate for exactly 2.5 minutes. The plate was washed again with wash buffer before adding 250 ng/ml SULFO-TAG-labeled streptavidin secondary reagent (MSD) in PBS with 0.1% BSA. After washing with wash buffer, plates were read in MSD read buffer (MSD) using the MESO QuickPlex SQ 120 (MSD). The binding data were processed by nonlinear curve fitting in Prism 7 software (Graphpad) to calculate equilibrium binding KD values."}, "[6]": {"target": "T1, murine LTBP1-proTGFβ1 complex (mouse, UniProt Q8CG19 339-1712; P04202 30-390, limits assumed)", "T1 construct": "also called mLTBP1-proTGFβ1", "T1 sequence (Q8CG19 339-1712 limits assumed, chain 1 of 2)": "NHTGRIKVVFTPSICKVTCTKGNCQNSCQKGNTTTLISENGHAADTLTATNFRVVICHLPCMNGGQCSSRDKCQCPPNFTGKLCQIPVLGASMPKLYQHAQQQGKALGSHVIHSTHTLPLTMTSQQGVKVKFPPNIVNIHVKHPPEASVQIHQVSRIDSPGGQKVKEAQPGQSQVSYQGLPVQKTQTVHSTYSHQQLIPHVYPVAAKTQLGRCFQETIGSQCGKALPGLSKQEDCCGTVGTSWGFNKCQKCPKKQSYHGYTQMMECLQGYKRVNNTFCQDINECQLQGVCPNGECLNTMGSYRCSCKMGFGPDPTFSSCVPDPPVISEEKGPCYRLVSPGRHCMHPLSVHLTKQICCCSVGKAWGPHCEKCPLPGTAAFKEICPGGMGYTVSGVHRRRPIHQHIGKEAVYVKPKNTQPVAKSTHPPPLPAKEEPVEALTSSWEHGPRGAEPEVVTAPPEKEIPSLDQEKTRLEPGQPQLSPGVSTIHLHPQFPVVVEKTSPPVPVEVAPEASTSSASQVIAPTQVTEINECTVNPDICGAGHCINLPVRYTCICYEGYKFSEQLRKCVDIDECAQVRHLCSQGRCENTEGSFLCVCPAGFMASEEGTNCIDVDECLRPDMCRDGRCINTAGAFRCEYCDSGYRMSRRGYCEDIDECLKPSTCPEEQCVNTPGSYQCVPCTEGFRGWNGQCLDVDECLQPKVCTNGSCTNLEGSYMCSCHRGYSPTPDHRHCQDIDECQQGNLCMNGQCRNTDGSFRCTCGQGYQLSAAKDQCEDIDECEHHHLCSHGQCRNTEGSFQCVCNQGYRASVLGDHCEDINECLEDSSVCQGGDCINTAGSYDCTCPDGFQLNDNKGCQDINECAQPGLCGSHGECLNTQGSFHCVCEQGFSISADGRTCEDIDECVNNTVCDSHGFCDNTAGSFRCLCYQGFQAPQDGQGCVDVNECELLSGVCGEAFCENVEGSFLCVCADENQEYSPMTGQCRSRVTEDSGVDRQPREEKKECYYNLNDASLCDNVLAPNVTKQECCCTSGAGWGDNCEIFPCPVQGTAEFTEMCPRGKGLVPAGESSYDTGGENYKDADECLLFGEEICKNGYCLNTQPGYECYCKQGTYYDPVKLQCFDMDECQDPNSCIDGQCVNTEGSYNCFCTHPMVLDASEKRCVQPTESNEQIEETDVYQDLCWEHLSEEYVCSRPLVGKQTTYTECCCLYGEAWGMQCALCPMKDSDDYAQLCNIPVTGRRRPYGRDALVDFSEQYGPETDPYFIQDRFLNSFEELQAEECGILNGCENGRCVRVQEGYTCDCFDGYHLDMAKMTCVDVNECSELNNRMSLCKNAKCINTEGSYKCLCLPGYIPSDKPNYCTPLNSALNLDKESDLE", "T1 sequence (P04202 30-390 limits assumed, chain 2 of 2)": "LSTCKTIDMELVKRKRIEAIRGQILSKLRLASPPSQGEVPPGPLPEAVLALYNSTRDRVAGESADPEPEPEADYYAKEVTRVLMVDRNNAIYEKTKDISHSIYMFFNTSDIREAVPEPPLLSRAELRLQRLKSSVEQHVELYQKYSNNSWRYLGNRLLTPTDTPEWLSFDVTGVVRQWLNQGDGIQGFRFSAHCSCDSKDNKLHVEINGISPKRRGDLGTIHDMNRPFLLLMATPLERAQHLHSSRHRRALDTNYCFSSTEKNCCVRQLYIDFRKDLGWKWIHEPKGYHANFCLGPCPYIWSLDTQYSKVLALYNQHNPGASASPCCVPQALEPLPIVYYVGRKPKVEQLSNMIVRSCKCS", "assay": "MSD-SET, solution equilibrium titration", "description": "as §1, §2"}, "[7]": {"target": "T2, murine GARP-proTGFβ1 complex (mouse, UniProt G3XA59 18-628; P04202 30-390)", "T2 construct": "Soluble murine complex; also called mGARP-proTGFβ1", "T2 sequence (G3XA59 18-628, chain 1 of 2)": "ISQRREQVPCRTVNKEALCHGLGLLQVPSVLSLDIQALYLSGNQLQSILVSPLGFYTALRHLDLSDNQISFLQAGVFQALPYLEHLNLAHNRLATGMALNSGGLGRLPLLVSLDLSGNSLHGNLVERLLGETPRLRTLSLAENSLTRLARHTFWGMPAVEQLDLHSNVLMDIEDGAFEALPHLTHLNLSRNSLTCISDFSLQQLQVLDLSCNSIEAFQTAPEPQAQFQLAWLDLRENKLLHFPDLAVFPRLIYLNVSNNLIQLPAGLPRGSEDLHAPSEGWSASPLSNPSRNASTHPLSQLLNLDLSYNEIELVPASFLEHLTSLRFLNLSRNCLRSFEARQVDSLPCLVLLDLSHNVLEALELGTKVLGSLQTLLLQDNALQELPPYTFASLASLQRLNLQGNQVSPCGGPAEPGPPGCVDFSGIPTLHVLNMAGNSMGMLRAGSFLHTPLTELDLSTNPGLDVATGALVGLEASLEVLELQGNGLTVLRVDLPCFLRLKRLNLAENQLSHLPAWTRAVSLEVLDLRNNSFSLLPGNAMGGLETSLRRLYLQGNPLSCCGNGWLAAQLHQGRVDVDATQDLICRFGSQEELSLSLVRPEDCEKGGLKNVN", "T2 sequence (P04202 30-390, chain 2 of 2)": "as the sequence (P04202 30-390 limits assumed, chain 2 of 2) above", "assay": "MSD-SET, solution equilibrium titration", "description": "as §1, §2"}, "[8]": {"target": "T3, human mature TGFβ3 growth factor (human, UniProt P10600 301-412)", "T3 construct": "mature", "T3 sequence (looked up)": "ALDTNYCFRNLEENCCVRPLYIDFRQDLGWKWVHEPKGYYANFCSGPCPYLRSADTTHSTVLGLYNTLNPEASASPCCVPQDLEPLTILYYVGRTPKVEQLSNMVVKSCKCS", "assay": "in vitro binding assay (BLI protocol at p-1008)", "description": "(§3) AR2G biosensors were first allowed to hydrate in water offline for at least 10 minutes before initiation of the experiment. Upon initiation of the experiment, AR2G tips were equilibrated in water for 1 minute. Then, the tips were moved into a freshly prepared activation solution (18 parts water, 1 part 400 mM EDC (1-Ethyl-3-[3-dimethylaminopropyl] carbodiimide hydrochloride), and 1 part 200 mM sulfo-NHS (N-hydroxysulfosuccinimide)) for 5 minutes. Recombinant TGFβ protein (10 ug/mL in 10 mM sodium acetate buffer pH 5) was coupled to the activated tips for 3 minutes before quenching with ethanolamine pH 8.5 for 15 minutes. […] Finally, a ten minute dissociation was performed."}, "[9]": {"target": "T4, human mature TGFβ2 growth factor (human, UniProt P61812 303-414)", "T4 construct": "mature", "T4 sequence (looked up)": "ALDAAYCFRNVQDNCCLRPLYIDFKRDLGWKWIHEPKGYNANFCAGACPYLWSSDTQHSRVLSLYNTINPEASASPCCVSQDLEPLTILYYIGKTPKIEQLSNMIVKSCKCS", "assay": "in vitro binding assay (BLI protocol at p-1008)", "description": "as §3"}, "[10]": {"target": "T5, human LTBP1-proTGFβ1 complex (human, UniProt Q14766 873-1507)", "T5 construct": "range 873-1507; biotinylated in Octet and MSD-SET; also called hLTBP1-proTGFβ1; hLTBP1", "T5 sequence (Q14766 873-1507 limits assumed, chain 1 of 2)": "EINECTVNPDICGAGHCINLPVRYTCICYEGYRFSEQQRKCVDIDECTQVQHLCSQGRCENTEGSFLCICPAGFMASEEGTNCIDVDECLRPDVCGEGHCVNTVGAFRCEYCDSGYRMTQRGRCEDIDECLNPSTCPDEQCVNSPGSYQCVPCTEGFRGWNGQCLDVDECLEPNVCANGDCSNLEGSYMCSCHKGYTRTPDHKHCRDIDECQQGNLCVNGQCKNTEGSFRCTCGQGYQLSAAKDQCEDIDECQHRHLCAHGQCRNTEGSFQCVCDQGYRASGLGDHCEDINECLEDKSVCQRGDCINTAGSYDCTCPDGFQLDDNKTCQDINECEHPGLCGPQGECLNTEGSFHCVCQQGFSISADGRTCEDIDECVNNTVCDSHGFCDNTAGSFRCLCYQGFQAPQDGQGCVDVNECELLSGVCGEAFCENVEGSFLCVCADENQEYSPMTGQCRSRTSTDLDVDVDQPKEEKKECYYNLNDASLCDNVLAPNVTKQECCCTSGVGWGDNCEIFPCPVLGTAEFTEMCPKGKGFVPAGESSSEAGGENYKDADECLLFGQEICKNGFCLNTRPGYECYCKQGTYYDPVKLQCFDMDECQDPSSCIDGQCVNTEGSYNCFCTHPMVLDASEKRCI", "T5 sequence (chain, as listed by the source limits assumed, chain 2 of 2)": "as the sequence (P01137 30-390, chain 2 of 2) above", "assay": "MSD-SET, solution equilibrium titration", "description": "as §1"}, "[11]": {"target": "T6, human GARP-proTGFβ1 complex (human, UniProt Q14392 20-627; P01137 30-390)", "T6 construct": "also called hGARP-proTGFβ1; hGARP", "assay": "MSD-SET, solution equilibrium titration", "description": "as §1"}, "[12]": {"target": "T7, human LRRC33-proTGFβ1 complex (human, UniProt Q86YC3 19-650; P01137 30-390)", "T7 construct": "also called hLRRC33-proTGFβ1; hLRRC33", "assay": "MSD-SET, solution equilibrium titration", "description": "as §1"}, "[13]": {"target": "T8, human LTBP3-proTGFβ1 complex (human, UniProt Q9NS15 866-1039)", "T8 construct": "range 866-1039; also called hLTBP3-proTGFβ1; hLTBP3", "T8 sequence (Q9NS15 866-1039 limits assumed, chain 1 of 2)": "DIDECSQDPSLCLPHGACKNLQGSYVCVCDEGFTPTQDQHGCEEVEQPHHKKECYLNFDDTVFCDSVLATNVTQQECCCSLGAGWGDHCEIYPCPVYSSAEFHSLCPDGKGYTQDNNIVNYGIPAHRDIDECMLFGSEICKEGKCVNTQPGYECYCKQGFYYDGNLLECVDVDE", "T8 sequence (chain, as listed by the source limits assumed, chain 2 of 2)": "as the sequence (P01137 30-390, chain 2 of 2) above", "assay": "MSD-SET, solution equilibrium titration", "description": "as §1"}, "[14]": {"target": "T8, human LTBP3-proTGFβ1 complex", "assay": "MSD-SET solution equilibrium titration; Ab6 titrated against biotinylated hLTBP3-proTGFβ1, readout % free antigen", "description": "as §1\nas §2, with “The plate was washed again with wash buffer before adding 250 ng/ml SULFO-TAG-labeled streptavidin secondary reagent (MSD) in PBS with 0.1% BSA.” left out, “The binding data were processed by nonlinear curve fitting in Prism 7 software (Graphpad) to calculate equilibrium binding KD values.” left out"}, "[15]": {"target": "T9, human mature TGFβ1 growth factor (human, UniProt P01137 279-390)", "T9 construct": "Bought from R&D Systems; also called active (mature) TGFβ1 growth factor; free TGFβ1 growth factor", "assay": "in vitro binding assay"}, "[16]": {"target": "T5, human LTBP1-proTGFβ1 complex", "assay": "MSD-SET solution equilibrium titration; Ab6 titrated against biotinylated hLTBP1-proTGFβ1, readout % free antigen", "description": "as §1\nas §2, with “The plate was washed again with wash buffer before adding 250 ng/ml SULFO-TAG-labeled streptavidin secondary reagent (MSD) in PBS with 0.1% BSA.” left out, “The binding data were processed by nonlinear curve fitting in Prism 7 software (Graphpad) to calculate equilibrium binding KD values.” left out"}, "human proTGFβ1 C4S": {"target": "T10, human proTGFβ1 C4S (human, UniProt P01137 30-390)", "T10 construct": "Small latent complex without presenting molecule; the cysteine that links to presenting molecules is changed to serine; also called small latent complex proTGFβ1 C4S; latent TGFβ1", "assay": "method not described"}}}
{"binder": "Ab6 (antibody, human IgG4 S228P, kappa, V domains shown) VH: EVQLVESGGGLVQPGGSLRLSCTASGFTFSSFSMDWVRQAPGKGLEWVSYISPSADTIYYADSVKGRFTISRDNAKNTLYLQMNSLRAEDTAVYYCARGVLDYGDMLMPWGQGTLVTVSS VL: DIQMTQSPSSLSASVGDRVTITCQASQDITNYLNWYQQKPGKAPKLLIYDASNLETGVPSRFSGSGSGTDFTFTISSLQPEDIATYYCQQADNHPPWTFGGGTKVEIKR", "values": [{"measurement": "IC50, reporter cell assay of TGFβ1 activation", "setting": "[1]", "value": 0.324, "unit": "nM"}, {"measurement": "IC50, reporter cell assay of TGFβ1 activation", "setting": "[2]", "value": 0.821, "unit": "nM"}, {"measurement": "IC50, reporter cell assay of TGFβ1 activation", "setting": "[3]", "value": 0.495, "unit": "nM"}, {"measurement": "IC50, reporter cell assay of TGFβ1 activation", "setting": "[4]", "value": 2.74, "unit": "nM"}, {"measurement": "Kd", "setting": "[5]", "value": 0.086, "unit": "nM"}, {"measurement": "Kd", "setting": "[6]", "value": 0.024, "unit": "nM"}, {"measurement": "Kd", "setting": "[7]", "value": 0.021, "unit": "nM"}, {"measurement": "binding result", "setting": "[8]", "value": "no binding"}, {"measurement": "binding result", "setting": "[9]", "value": "no binding"}, {"measurement": "Kd", "setting": "[10]", "value": 0.018, "unit": "nM"}, {"measurement": "Kd", "setting": "[11]", "value": 0.027, "unit": "nM"}, {"measurement": "Kd", "setting": "[12]", "value": 0.063, "unit": "nM"}, {"measurement": "Kd", "setting": "[13]", "value": 0.029, "unit": "nM"}, {"measurement": "IC50 (read off the curve)", "setting": "[14]", "value": "~0.03", "unit": "nM"}, {"measurement": "binding result", "setting": "[15]", "value": "no binding"}, {"measurement": "IC50 (read off the curve)", "setting": "[16]", "value": "~0.02", "unit": "nM"}, {"measurement": "binding result", "setting": "human proTGFβ1 C4S", "value": "binds"}]}
